Assay results: PMC5064454, “Wild-type p53 binds to MYC promoter G-quadruplex”

B1: P1-50 (dsDNA)
DNA 1: GACGGTATCGATAAGAGACATGCCTAGACATGCCTCTTGATATCGAATTC
DNA 2: GAATTCGATATCAAGAGGCATGTCTAGGCATGTCTCTTATCGATACCGTC
B2: P1-30 (dsDNA)
DNA 1: GTAAGAGACATGCCTAGACATGCCTCATCG
DNA 2: CGATGAGGCATGTCTAGGCATGTCTCTTAC
B3: P1-22 (dsDNA)
DNA 1: GAGACATGCCTAGACATGCCTC
DNA 2: GAGGCATGTCTAGGCATGTCTC
B4: Pu52 (structured_DNA)
DNA: TTGGGGCGCTTATGGGGAGGGTGGGGAGGGTGGGGAAGGTGGGGAGGAGACT
B5: P1-40 (dsDNA)
DNA 1: GATCGATAAGAGACATGCCTAGACATGCCTCTTGATATCG
DNA 2: CGATATCAAGAGGCATGTCTAGGCATGTCTCTTATCGATC

How the values were obtained:
[1] = biological target: T1, wtp53 (full-length wild-type p53) (Homo sapiens, UniProt P04637 1-393); assay: EMSA; 50 mM KCl; EMSA: 5 mM Tris pH 7.6, 0.5 mM EDTA, 0.01% Triton X-100, 50 mM KCl, 0.5 mM DTT, on ice 20 min (30 min for plasmids); oligo EMSA with 50 ng BSA and 2.5-20 ng pBSK/EcoRV competitor; conditions: protein: recombinant, chain copies: 4, label: 5' 32P
T1 sequence (P04637 whole entry): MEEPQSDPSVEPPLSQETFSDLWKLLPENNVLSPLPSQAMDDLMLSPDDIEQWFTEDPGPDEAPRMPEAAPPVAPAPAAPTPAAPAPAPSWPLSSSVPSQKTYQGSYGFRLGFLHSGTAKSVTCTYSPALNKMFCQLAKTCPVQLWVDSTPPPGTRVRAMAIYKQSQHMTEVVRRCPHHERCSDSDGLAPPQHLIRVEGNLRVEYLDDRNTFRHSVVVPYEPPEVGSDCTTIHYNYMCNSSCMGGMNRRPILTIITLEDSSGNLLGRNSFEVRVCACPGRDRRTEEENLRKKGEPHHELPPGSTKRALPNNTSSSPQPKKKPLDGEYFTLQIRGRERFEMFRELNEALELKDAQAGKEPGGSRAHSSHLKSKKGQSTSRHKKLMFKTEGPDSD

[2] = biological target: p53CD (GSTp53CD, central DBD) (Homo sapiens, UniProt P04637 94-312); assay: as above; conditions: protein: recombinant; tags: GST; chain copies: 4; label: 5' 32P; blunt
p53CD (GSTp53CD, central DBD), sequence (P04637 94-312): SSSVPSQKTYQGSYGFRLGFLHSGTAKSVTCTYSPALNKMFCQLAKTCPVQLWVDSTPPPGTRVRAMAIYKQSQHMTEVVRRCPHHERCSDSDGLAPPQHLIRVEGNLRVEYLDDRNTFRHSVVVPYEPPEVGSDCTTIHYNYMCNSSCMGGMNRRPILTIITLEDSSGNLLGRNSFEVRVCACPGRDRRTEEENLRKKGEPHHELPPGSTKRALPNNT

[3] = biological target: T1, wtp53 (full-length wild-type p53); assay: EMSA; 50 mM KCl; comparable to P1-22, lower than Pu52; EMSA: 5 mM Tris pH 7.6, 0.5 mM EDTA, 0.01% Triton X-100, 50 mM KCl, 0.5 mM DTT, on ice 20 min (30 min for plasmids); oligo EMSA with 50 ng BSA and 2.5-20 ng pBSK/EcoRV competitor; conditions: protein: recombinant; chain copies: 4; label: 5' 32P; parallel G4, 1:2:1 loops, annealed in 50 mM KCl
[4] = biological target: p53CT (GSTp53CT) (Homo sapiens, UniProt P04637 320-393); assay: EMSA; 50 mM KCl; EMSA: 5 mM Tris pH 7.6, 0.5 mM EDTA, 0.01% Triton X-100, 50 mM KCl, 0.5 mM DTT, on ice 20 min (30 min for plasmids); oligo EMSA with 50 ng BSA and 2.5-20 ng pBSK/EcoRV competitor; conditions: protein: recombinant; tags: GST; chain copies: 4; label: 5' 32P; parallel G4, 1:2:1 loops, annealed in 50 mM KCl
p53CT (GSTp53CT), sequence (P04637 320-393): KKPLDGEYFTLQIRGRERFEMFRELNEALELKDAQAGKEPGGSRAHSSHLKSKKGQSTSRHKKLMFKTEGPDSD

[5] = biological target: T1, wtp53 (full-length wild-type p53); assay: EMSA; 50 mM KCl; comparable to P1-50; EMSA: 5 mM Tris pH 7.6, 0.5 mM EDTA, 0.01% Triton X-100, 50 mM KCl, 0.5 mM DTT, on ice 20 min (30 min for plasmids); oligo EMSA with 50 ng BSA and 2.5-20 ng pBSK/EcoRV competitor; conditions: protein: recombinant; chain copies: 4; label: 5' 32P; parallel G4, 1:2:1 loops, annealed in 50 mM KCl
[6] = biological target: p53CΔ30 (Homo sapiens, UniProt P04637 1-363); assay: EMSA; 50 mM KCl; EMSA: 5 mM Tris pH 7.6, 0.5 mM EDTA, 0.01% Triton X-100, 50 mM KCl, 0.5 mM DTT, on ice 20 min (30 min for plasmids); oligo EMSA with 50 ng BSA and 2.5-20 ng pBSK/EcoRV competitor; conditions: protein: recombinant; chain copies: 4; label: 5' 32P; blunt
p53CΔ30, sequence (P04637 1-363, stated change not applied): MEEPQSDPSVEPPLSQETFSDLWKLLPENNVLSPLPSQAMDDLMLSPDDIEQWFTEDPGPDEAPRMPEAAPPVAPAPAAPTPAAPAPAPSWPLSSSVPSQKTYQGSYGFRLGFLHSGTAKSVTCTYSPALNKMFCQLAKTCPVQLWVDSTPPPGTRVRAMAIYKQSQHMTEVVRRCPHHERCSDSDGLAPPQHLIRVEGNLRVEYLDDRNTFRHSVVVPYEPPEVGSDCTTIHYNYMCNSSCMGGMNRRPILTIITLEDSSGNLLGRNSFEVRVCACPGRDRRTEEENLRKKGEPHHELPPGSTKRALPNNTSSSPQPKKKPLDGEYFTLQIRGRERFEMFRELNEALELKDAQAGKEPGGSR

[7] = biological target: T1, wtp53 (full-length wild-type p53); assay: EMSA; 50 mM KCl; comparable to P1-30, lower than Pu52; EMSA: 5 mM Tris pH 7.6, 0.5 mM EDTA, 0.01% Triton X-100, 50 mM KCl, 0.5 mM DTT, on ice 20 min (30 min for plasmids); oligo EMSA with 50 ng BSA and 2.5-20 ng pBSK/EcoRV competitor; conditions: protein: recombinant; chain copies: 4; label: 5' 32P; parallel G4, annealed in 50 mM KCl

Row | Binder | binding result ([1]; blunt) | binding result [2] | further results
1 | B1 | binds | binds | 
2 | B2 | binds | binds | 
3 | B3 | binds | binds | 
4 | TGAGGGTGGGGAGGGTGGGGAA (structured_DNA) [Pu22] |  |  | binding result [3]: binds
5 | AAAAAAAAAAAAAAAAAAAAAAAAA (ssDNA) [A25] |  |  | binding result [1]: no binding
6 | B4 |  |  | binding result [4]: binds; binding result [5]: binds
7 | AAAAAAAAAAAAAAAAAAAAAAAAAAAAAAAAAAAAAAAAAAAAAAAAAA (ssDNA) [A50] |  |  | binding result [1]: no binding
8 | B5 | binds | binds | binding result [6]: binds
9 | TGGGGAGGGTGGGGAGGGTGGGGAAGGTGGGGA (structured_DNA) [Pu33] |  |  | binding result [7]: binds
